Experiments:
MS2 coat protein [1] = assay: apparent KD of MS2 coat protein; higher = weaker reporter binding; conditions: Eterna round: R101
Protocol: (§1)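 RNA-MaP: designed FMN/MS2 RNA switches (84 nt design region) are transcribed on-chip within common flanks and titrated with SNAP-549-labelled MS2 coat protein (about 1-3000 nM) in 100 mM Tris pH 7.5, 80 mM KCl, 4 mM MgCl2, without or with 200 uM FMN. Median apparent KD per design; activation ratio = KD,OFF / KD,ON.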

MS2 coat protein [2] = assay: apparent KD of MS2 coat protein; designed switch direction (-1 OFF switch, 1 ON switch): 1; higher = weaker reporter binding; conditions: Eterna round: R98
Protocol: as §1

MS2 coat protein [3] = assay: apparent KD of MS2 coat protein, switch ON state; designed switch direction (-1 OFF switch, 1 ON switch): 1; higher = weaker reporter binding; conditions: FMN input: 0 or 200 uM; Eterna round: R93 (includes R88 designs)
Summary of the method: (§2)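 Each design's apparent KD comes from the median of binding-curve fits to its normalised clusters. Those clusters carried RNA switches transcribed on-chip from Illumina sequencing clusters. SNAP-549-labelled MS2 coat protein was titrated onto them in twofold steps (0.7 or 1.5 nM to 3 µM; per step 0.8–1.5 h down to 10–20 min). Conditions were 100 mM Tris-HCl pH 7.5, 80 mM KCl, 4 mM MgCl2, without or with constant ligand.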

MS2 coat protein [4] = assay: apparent KD of MS2 coat protein, switch OFF state (with FMN for OFF switches, without FMN for ON switches); designed switch direction (-1 OFF switch, 1 ON switch): 1; higher = weaker reporter binding; conditions: FMN input: 0 or 200 uM; Eterna round: R93 (includes R88 designs)
Summary of the method: as §2

AAAAAUUCUUAAGGAUAUCAGUGGCAAAGCCACUGAGAAGGUGAGGAUCACCCACCUACGUGACGCUGGAAACAGCGUCACGAA [#SharedSequence ExNG1 - 29] (puzzle (switch architecture): Exclusion NG 1)
apparent KD of MS2 coat protein (MS2 coat protein [1]; input ligand: FMN 200 uM): 0.0188 µM
apparent KD of MS2 coat protein (MS2 coat protein [1]; input ligand: none): 0.0166 µM

AAAACAUACCGAGGAUAUUCAUUUUAUAAAUAAACAUGAGGAUCACCCAUGUGGCAAAAGCCUAGGGAGAAGGCGGAAUGCUAA [salish99_SSNG2_r2_121]
apparent KD of MS2 coat protein (MS2 coat protein [2]; input ligand: FMN 200 uM): 0.0299 µM
apparent KD of MS2 coat protein (MS2 coat protein [2]; input ligand: none): 0.0396 µM

AAAACAUGAGGAUCACCCAUGUAAAGAACGGUUAAUUAAAGUGAGGAUAUACAAAAUUUUAUAUAGUAGAAGGCACUGGGUACA [JR_SSNG3_Sub022]
apparent KD of MS2 coat protein (MS2 coat protein [2]; input ligand: FMN 200 uM): 0.0249 µM
apparent KD of MS2 coat protein (MS2 coat protein [2]; input ligand: none): 0.0214 µM

AAUAAUUCUUAAGGAUAUGACUCCGAAACGGAGUCAGAAGGUGAGGAUCACCCACCUAGCUCAGCGUCGAAAGACGCUGAGCAA [#SharedSequence ExNG1 - 31] (puzzle (switch architecture): Exclusion NG 1)
apparent KD of MS2 coat protein (MS2 coat protein [1]; input ligand: FMN 200 uM): 0.0127 µM
apparent KD of MS2 coat protein (MS2 coat protein [1]; input ligand: none): 0.0105 µM

AGAAACUACGAGAAGGACAUGUGGUCCUUCAAAACCAUGAGGAUCACCCAUGUAGGAUAUCGUAGUUUCAGGAUCGUGAGAUCA [salish99_ISLExNG1_023 #HINGE] (puzzle (switch architecture): Inverted Small Loop Exclusion NG 1)
apparent KD of MS2 coat protein (MS2 coat protein [1]; input ligand: FMN 200 uM): 0.0121 µM
apparent KD of MS2 coat protein (MS2 coat protein [1]; input ligand: none): 0.268 µM

AGCGGUAGGACAGGAUAUGGUGACUUCAAGCGGCCAGAAGGGUCCCGACAUGAGGAUCACCCAUGUCUUCCAGGCAGGGAGCGC [Teanisradi]
apparent KD of MS2 coat protein (MS2 coat protein [2]; input ligand: FMN 200 uM): 0.71 µM
apparent KD of MS2 coat protein (MS2 coat protein [2]; input ligand: none): 0.234 µM

AUAUAUAUUUAGAAGGACAUGAGGAUCACCCAUGUCGCCGGGCCCGGGAAACCGGGCCCGGCCAUGUAGGAUAUAGAUAUAUAU [#This is a good prank 13] (puzzle (switch architecture): Inverted Exclusion NG 2)
apparent KD of MS2 coat protein (MS2 coat protein [1]; input ligand: FMN 200 uM): 0.00905 µM
apparent KD of MS2 coat protein (MS2 coat protein [1]; input ligand: none): 0.00641 µM

AUCAGCUCGUCAGGAUAUACGUCACUGCUUCGGCAGUGUGGUAAGAUCACAUGAGGAUCACCCAUGUAGAAGGGACGAGCUGAU [#EX_NG2_M81 #GC_VS_GU_SWITCHING] (puzzle (switch architecture): Exclusion NG 2)
apparent KD of MS2 coat protein (MS2 coat protein [1]; input ligand: FMN 200 uM): 0.258 µM
apparent KD of MS2 coat protein (MS2 coat protein [1]; input ligand: none): 0.0134 µM

AUGGAUAUCACAGGAUAUGAUAUGGAUACCAUAUCAGAAGGGUGACCCAUCCUAUGUAAAUACAUGAGGAUCACCCAUGUGUCC [Sara'sguidence+#HughScoreProbStacks#11] (puzzle (switch architecture): Same State NG 1)
apparent KD of MS2 coat protein (MS2 coat protein [1]; input ligand: FMN 200 uM): 0.34 µM
apparent KD of MS2 coat protein (MS2 coat protein [1]; input ligand: none): 0.64 µM

CACACAUGGUGAGGAUAUGCAGAGGAUCACCCUGUAGAAGGCAUCAGGGUAGAAGGUGCAAGGAUCACCUGUAAGGAUAUAUCC [pwkr2 ssNG1 DX.27]
apparent KD of MS2 coat protein (MS2 coat protein [2]; input ligand: FMN 200 uM): 1.03 µM
apparent KD of MS2 coat protein (MS2 coat protein [2]; input ligand: none): 1.43 µM

CCAGAUGUGUGAGGAUAUAGAGUGGAAUACACUCUAGAAGGUAUGUGAAAACAUGAGGAUCACCCAUGUGAUUAAUCAUCUGGA [SameState #2 NG1]
apparent KD of MS2 coat protein (MS2 coat protein [2]; input ligand: FMN 200 uM): 0.0279 µM
apparent KD of MS2 coat protein (MS2 coat protein [2]; input ligand: none): 0.0244 µM

CCCUCCAGAAGAGGGACAUGAGGAUCACCCAUGUAGGCUGCACAGGAUAUCGAUCGGAGGCGGUACGAGAAGGGUGACGUCAUU [Atleis]
apparent KD of MS2 coat protein (MS2 coat protein [2]; input ligand: FMN 200 uM): 0.0487 µM
apparent KD of MS2 coat protein (MS2 coat protein [2]; input ligand: none): 0.0269 µM

CCUGACACUUGAGGAUAUGCUCAGGAUAACUGAGCAGAAGGCAGGAAAACCUGAGGAUCACCCAGGUAAGUCAGGAAUAAUAAA [Same State NG1 - A3C, U17G Submission 3B]
apparent KD of MS2 coat protein (MS2 coat protein [2]; input ligand: FMN 200 uM): 0.0158 µM
apparent KD of MS2 coat protein (MS2 coat protein [2]; input ligand: none): 0.0217 µM

CGAAGUCCGUAGAAGGGUGACAUGAGGAUCACCCAUGUGCGAGCCGAUGGAGUCAGCGGCUCGCCACAGGAUAUACGGAGCACG [Isdiesrama] (puzzle (switch architecture): Inverted Same State NG 2)
apparent KD of MS2 coat protein (MS2 coat protein [1]; input ligand: FMN 200 uM): 0.0223 µM
apparent KD of MS2 coat protein (MS2 coat protein [1]; input ligand: none): 0.18 µM

CGAUAUAUGAAGGGCAAACGCCCACAUGAGGAUCACCCAUGUAGAAGGCGAUCCGCAACGCGGAUCGAGGAUAUAUAGUAUACA [#my 15th design] (puzzle (switch architecture): Inverted Exclusion NG 3)
apparent KD of MS2 coat protein (MS2 coat protein [1]; input ligand: FMN 200 uM): 0.0106 µM
apparent KD of MS2 coat protein (MS2 coat protein [1]; input ligand: none): 0.0112 µM

CGCUAUAACAUGAGGAUCACCCAUGUAUACAUGGAAUUGACGUAGGAUAUGCAGUUGAUUAUAGUGCAGAAGGACGGUAUAGCG [JR #DistanceFar #Hairpin #Noisy #NP SSNG3 Sub069] (puzzle (switch architecture): Same State NG 3)
apparent KD of MS2 coat protein (MS2 coat protein [1]; input ligand: FMN 200 uM): 0.0373 µM
apparent KD of MS2 coat protein (MS2 coat protein [1]; input ligand: none): 0.101 µM

GACGAAAUCUUAGGAUAUGCUCAGGAAUACUGAGCAGAAGGAAGAUAUACCUGAGGAUCACCCAGGUUAAACUGGACGUCAAUA [Same State NG1 - A3C, U17G Submission 8I U7A]
apparent KD of MS2 coat protein (MS2 coat protein [2]; input ligand: FMN 200 uM): 0.0249 µM
apparent KD of MS2 coat protein (MS2 coat protein [2]; input ligand: none): 0.0294 µM

GCAGAAGGUGCGGAGGAUCACCCUGUAAGGAUAUGCAUUAGCAAGGAUAUACAGAGGAUCACCCUGUAGAAGGUGCACUACUCA [pwkr2 ssNG3 DX.3]
apparent KD of MS2 coat protein (MS2 coat protein [2]; input ligand: FMN 200 uM): 0.562 µM
apparent KD of MS2 coat protein (MS2 coat protein [2]; input ligand: none): 1.97 µM

GCAGCUAAUGCAGGAUAUCAGCACGUGUAGUGCUGAGAAGGGCACAUGAGGAUCACCCAUGUGAUCAAUUAAUGUUAAUGCUGC [ExNG1 1 #C-Saturation] (puzzle (switch architecture): Exclusion NG 1)
apparent KD of MS2 coat protein (MS2 coat protein [1]; input ligand: FMN 200 uM): 0.0152 µM
apparent KD of MS2 coat protein (MS2 coat protein [1]; input ligand: none): 0.00682 µM

GCUUGCGACGCAGGAUAUGGGUGCCUGCACAUGAGCAUCAGCCAUGUUGAGGAACGGAUUACGUCUCAGAAGGGCGUGGCAGGC [United States 3 - Jieux - Same State NG 2]
apparent KD of MS2 coat protein (MS2 coat protein [2]; input ligand: FMN 200 uM): 0.0167 µM
apparent KD of MS2 coat protein (MS2 coat protein [2]; input ligand: none): 0.0199 µM

GGAUCCAACACAGGAUAUGCUGGACUUUGUCCAGCAGAAGGGUGAAACAUGAGGAUCACCCAUGUAUGGAUCCAUAUAUUUAAU [Denovo 32]
apparent KD of MS2 coat protein (MS2 coat protein [2]; input ligand: FMN 200 uM): 0.245 µM
apparent KD of MS2 coat protein (MS2 coat protein [2]; input ligand: none): 0.629 µM

GGCUUAAACACAGGAUAUAGCCUUAGAGUGAGGCUAGAAGGGUGAAGUUCUCAUACAUGAGGAUCACCCAUGUCACGGAGGCUA [Atteedbian]
apparent KD of MS2 coat protein (MS2 coat protein [2]; input ligand: FMN 200 uM): 0.307 µM
apparent KD of MS2 coat protein (MS2 coat protein [2]; input ligand: none): 0.0371 µM

GUAGCAUACAGAGGAUAUUCAAACCGGAAACGGACAUGAGGAUCACCCAUGUGGCGAAAGCCUAGGGAGAAGGCUGAAUGCUAC [Xeinanis 75 40]
apparent KD of MS2 coat protein (MS2 coat protein [2]; input ligand: FMN 200 uM): 0.0117 µM
apparent KD of MS2 coat protein (MS2 coat protein [2]; input ligand: none): 0.016 µM

GUAGCAUACCGAGGAUAUUCAUCCGGAUUACGGACAUGAGGAUCACCCAUGUGGCGAAAGCCUUGGGAGAAGGCGGAAUGCUAC [Xeinanis 75 33]
apparent KD of MS2 coat protein (MS2 coat protein [2]; input ligand: FMN 200 uM): 0.0344 µM
apparent KD of MS2 coat protein (MS2 coat protein [2]; input ligand: none): 0.369 µM

GUCCCAGUCACAGGAUAUGGCUCCGUAAUGGAGCCAGAAGGGUGAUAUUCAGAAAACACACAUGAGGAUCACCCAUGUAAUAAA [Enindiinso]
apparent KD of MS2 coat protein (MS2 coat protein [2]; input ligand: FMN 200 uM): 0.188 µM
apparent KD of MS2 coat protein (MS2 coat protein [2]; input ligand: none): 0.774 µM

UAUAUAUGGUGAGGAUAUGCAGAGGAUCACCCUGUAGAAGGCAUCAGGGUAGAAGGUGCAAGGAUCACCUGUAAGGAUAUAUCC [pwkr2 ssNG1 DX.30]
apparent KD of MS2 coat protein (MS2 coat protein [2]; input ligand: FMN 200 uM): 0.587 µM
apparent KD of MS2 coat protein (MS2 coat protein [2]; input ligand: none): 1.37 µM

UAUUGCGCCGUAAAAUAACACAUGAGGAUCACCCAUGUGACACAGGAUAUAACCAGAUCAGAAAGUUAGAAGGGUGAAAACGGC [Edraed Mod 3 - Jieux - Same State NG3]
apparent KD of MS2 coat protein (MS2 coat protein [2]; input ligand: FMN 200 uM): 0.0204 µM
apparent KD of MS2 coat protein (MS2 coat protein [2]; input ligand: none): 0.0308 µM

UGAUCGCUUGGAGGAUAUCCAACUAUCCUAGUUGGAGAAGGCCAAGCUACAGAGCUAAGCUUGGAAGUCACUUCGGAUCAACAC [pwkr ssNG1 F9.4.1]
apparent KD of MS2 coat protein (MS2 coat protein [2]; input ligand: FMN 200 uM): 0.0655 µM
apparent KD of MS2 coat protein (MS2 coat protein [2]; input ligand: none): 0.0327 µM

UGGAGACAUGAGGAUCACCCAUGUGAGAAGAGGCGAGGAUAUCGAAAGAAAGAAGAGAAACGAGAAGGCGCGAGGU [salish99-SS1-036]
apparent KD of MS2 coat protein (MS2 coat protein [3]): 0.0344 µM
apparent KD of MS2 coat protein (MS2 coat protein [4]): 0.0496 µM

UGUCUACCUGAUGAGGAUAUCCCACAGGCGACAUGAGGAUCACCCAUGUAAAGUAAGCGUAGGCGGGAGAAGGCAUGGCGGAGAC [Larearre]
apparent KD of MS2 coat protein (MS2 coat protein [3]): 0.0145 µM
apparent KD of MS2 coat protein (MS2 coat protein [4]): 0.0307 µM

UUUAGUUGCGGGCAGGAUAUGUAUUAAAAUACAUGAGGAUCACCCAUGUGCGGGUAUAACACCCGACAGAAGGGCCAAUCGCGAC [Laonerce]
apparent KD of MS2 coat protein (MS2 coat protein [3]): 0.0183 µM
apparent KD of MS2 coat protein (MS2 coat protein [4]): 0.305 µM
